The text below walks through data of patent US20230235299.

The data set deals with N,N-dimethylated casein.

B1: 3×HA-6His tag fusion transglutaminase (AO090023000250 of Aspergillus oryzae with a C-terminal 3×HA-6His tag) (protein)
chain: MAEETQVLSIQQRIAALNQAQVGQSPQAAASPLLGAQPTPFASRPAPSRQQTINNPPVNSHDSLGDRNEPTGAQPKPVPRPPPIPVQKPRAPPPLPARKASTESAPALPPRRPSGFSRKESRESLGSDVSHSTSTSAGRATIASTTSNNSDTIRSVRAPAWGAKLPPLPPKRQDTKTVQPPPRPRPSPANSSRSLSQGRPSLPPRRESTNSTSTNGNRSTSRPPPPLPSRINSDKSPGPSADTNGKQSTRKLPPPPPSSAALEKIQSSGLAGINRNTENSGKGTNGSVQEPQPNGVPPPVPRATRPDVDLAKLQATKPRLCKTTHSATAPSTMCLKCRDFSAPDAHAAQYPRESLPSYDLAWLARELTAPFPSPTDKARALFTWFHHNIEYDVHSFFNKCVKPSTPAGTLASGLAVCEGYASLFATLATHAGLEAVVVAGHGKGYGYDAPAPGSPIPPVSATGHAWSAVRIDNGQWKLLDACWGAGVVQGPGLPYKKQFNPAMFTDSNDEFGLRHFPSNRSHFFRDDGRPEITWEEYILGNPNSPLSAEQPTIFGDAQNHSIGERSFRPAAKQISIHDPSPLRFQFNLICEHWTLEHHTRAKPGLFLLMVHGLDGRQDDRLPFTHVRGSGPGGGGDFWYVDVPNAKILGAPGQKLAIAVLTSFGDRKDARGVTAEEYRQQVGRVGMAWAYIAEWQLV
On to B1, for which the “polymerization of casein (SDS-PAGE, Coomassie blue staining)” value is recorded as “in the presence of the purified or unpurified 3×HA-6His tag fusion protein, polymerization of casein was observed”.
